± gives the uncertainty stated by the source.
B1: Calcium-binding protein 2, residues 155 to 219; numbered along this chain, Q9NPB3 (parent)
chain: RELRDAFREFDTNGDGRISVGELRAALKALLGERLSQREVDEILQDVDLNGDGLVDFEEFVRMMS

Variants of: B1
Assay: abundance fitness (aPCA) (normalised: wild type 0, dead -1); higher = more abundant; growth selection in yeast, the domain comes from the species named
Settings: Homo sapiens

| Variant | abundance fitness |
| --- | --- |
| RELRDAFREFDTNGDGRISVGELRAALKLLLGERLSQREVDEILQDVDLNGDGLVDFEEFVRMMS [A29L] | -0.051 ± 0.063 |
| RELRDAFREFDTNGDGRISVGELRAALKMLLGERLSQREVDEILQDVDLNGDGLVDFEEFVRMMS [A29M] | -0.049 ± 0.12 |
| RELRDAFREFDTNGDGRISVGELRAALKCLLGERLSQREVDEILQDVDLNGDGLVDFEEFVRMMS [A29C] | -0.31 ± 0.3 |
| RELRDAFREFDTNGDGRISVGELRAALKGLLGERLSQREVDEILQDVDLNGDGLVDFEEFVRMMS [A29G] | -0.135 ± 0.053 |
| RELRDAFREFDTNGDGRISVGELRAALKNLLGERLSQREVDEILQDVDLNGDGLVDFEEFVRMMS [A29N] | -0.438 ± 0.28 |
| RELRDAFREFDTNGDGRISVGELRAALKDLLGERLSQREVDEILQDVDLNGDGLVDFEEFVRMMS [A29D] | 0.063 ± 0.18 |
| RELRDAFREFDTNGDGRISVGELRAALKFLLGERLSQREVDEILQDVDLNGDGLVDFEEFVRMMS [A29F] | -0.208 ± 0.12 |
| RELRDAFREFDTNGDGRISVGELRAALKELLGERLSQREVDEILQDVDLNGDGLVDFEEFVRMMS [A29E] | -0.096 ± 0.29 |
| RELRDAFREFDTNGDGRISVGELRAALKKLLGERLSQREVDEILQDVDLNGDGLVDFEEFVRMMS [A29K] | 0.066 ± 0.14 |
| RELRDAFREFDTNGDGRISVGELRAALKHLLGERLSQREVDEILQDVDLNGDGLVDFEEFVRMMS [A29H] | -0.149 ± 0.33 |
| RELRDAFREFDTNGDGRISVGELRAALKILLGERLSQREVDEILQDVDLNGDGLVDFEEFVRMMS [A29I] | -0.204 ± 0.21 |
| RELRDAFREFDTNGDGRISVGEYRAALKALLGERLSQREVDEILQDVDLNGDGLVDFEEFVRMMS [L23Y] | -0.249 ± 0.15 |
| RELRDAFREFDTNGDGRISVGEVRAALKALLGERLSQREVDEILQDVDLNGDGLVDFEEFVRMMS [L23V] | -0.133 ± 0.084 |
| RELRDAFREFDTNGDGRISVGEPRAALKALLGERLSQREVDEILQDVDLNGDGLVDFEEFVRMMS [L23P] | -0.592 ± 0.12 |
| RELRDAFREFDTNGDGRISVGEQRAALKALLGERLSQREVDEILQDVDLNGDGLVDFEEFVRMMS [L23Q] | -0.468 ± 0.12 |
| RELRDAFREFDTNGDGRISVGETRAALKALLGERLSQREVDEILQDVDLNGDGLVDFEEFVRMMS [L23T] | -0.023 ± 0.14 |
| RELRDAFREFDTNGDGRISVGESRAALKALLGERLSQREVDEILQDVDLNGDGLVDFEEFVRMMS [L23S] | -0.238 ± 0.15 |
| RELRDAFREFDTNGDGRISVGELREALKALLGERLSQREVDEILQDVDLNGDGLVDFEEFVRMMS [A25E] | 0.096 ± 0.13 |
| RELRDAFREFDTNGDGRISVGELRVALKALLGERLSQREVDEILQDVDLNGDGLVDFEEFVRMMS [A25V] | -0.035 ± 0.063 |
| RELRDAFREFDTNGDGRISVGELRTALKALLGERLSQREVDEILQDVDLNGDGLVDFEEFVRMMS [A25T] | -0.035 ± 0.11 |
| RELRDAFREFDTNGDGRISVGELRYALKALLGERLSQREVDEILQDVDLNGDGLVDFEEFVRMMS [A25Y] | -0.159 ± 0.16 |

| Variant | abundance fitness |
| --- | --- |
| RELRDAFREFDTNGDGRISVGELRCALKALLGERLSQREVDEILQDVDLNGDGLVDFEEFVRMMS [A25C] | 0.177 ± 0.14 |
| RELRDAFREFDTNGDGRISVGELRQALKALLGERLSQREVDEILQDVDLNGDGLVDFEEFVRMMS [A25Q] | -0.068 ± 0.15 |
| RELRDAFREFDTNGDGRISVGELRSALKALLGERLSQREVDEILQDVDLNGDGLVDFEEFVRMMS [A25S] | 0.084 ± 0.096 |
| RELRDAFREFDTNGDGRISVGELRGALKALLGERLSQREVDEILQDVDLNGDGLVDFEEFVRMMS [A25G] | 0.01 ± 0.061 |
| RELRDAFREFDTNGDGRISVGELRWALKALLGERLSQREVDEILQDVDLNGDGLVDFEEFVRMMS [A25W] | -0.189 ± 0.075 |
| RELRDAFREFDTNGDGRISVGELRFALKALLGERLSQREVDEILQDVDLNGDGLVDFEEFVRMMS [A25F] | -0.093 ± 0.25 |
| RELRDAFREFDTNGDGRISVGELRLALKALLGERLSQREVDEILQDVDLNGDGLVDFEEFVRMMS [A25L] | 0.139 ± 0.062 |
| RELRDAFREFDTNGDGRISVGELRMALKALLGERLSQREVDEILQDVDLNGDGLVDFEEFVRMMS [A25M] | 0.019 ± 0.11 |
| RELRDAFREFDTNGDGRISVGELRNALKALLGERLSQREVDEILQDVDLNGDGLVDFEEFVRMMS [A25N] | -0.109 ± 0.32 |
| RELRDAFREFDTNGDGRISVGELRHALKALLGERLSQREVDEILQDVDLNGDGLVDFEEFVRMMS [A25H] | -0.012 ± 0.13 |
| RELRDAFREFDTNGDGRISVGELRDALKALLGERLSQREVDEILQDVDLNGDGLVDFEEFVRMMS [A25D] | 0.045 ± 0.082 |
| RELRDAFREFDTNGDGRISVGELRPALKALLGERLSQREVDEILQDVDLNGDGLVDFEEFVRMMS [A25P] | -0.022 ± 0.11 |
| RELRDAFREFDTNGDGRISVGELRRALKALLGERLSQREVDEILQDVDLNGDGLVDFEEFVRMMS [A25R] | 0.051 ± 0.054 |
| RELRDAFREFDTNGDGRISVGELRAALFALLGERLSQREVDEILQDVDLNGDGLVDFEEFVRMMS [K28F] | -0.277 ± 0.27 |
| RELRDAFREFDTNGDGRISVGELRAALNALLGERLSQREVDEILQDVDLNGDGLVDFEEFVRMMS [K28N] | -0.133 ± 0.17 |
| RELRDAFREFDTNGDGRISVGELRAALTALLGERLSQREVDEILQDVDLNGDGLVDFEEFVRMMS [K28T] | 0.002 ± 0.085 |
| RELRDAFREFDTNGDGRISVGELRAALSALLGERLSQREVDEILQDVDLNGDGLVDFEEFVRMMS [K28S] | -0.017 ± 0.074 |
| RELRDAFREFDTNGDGRISVGELRAALAALLGERLSQREVDEILQDVDLNGDGLVDFEEFVRMMS [K28A] | 0.127 ± 0.31 |
| RELRDAFREFDTNGDGRISVGELRAALVALLGERLSQREVDEILQDVDLNGDGLVDFEEFVRMMS [K28V] | 0.089 ± 0.07 |
| RELRDAFREFDTNGDGRISVGELRAALYALLGERLSQREVDEILQDVDLNGDGLVDFEEFVRMMS [K28Y] | -0.216 ± 0.35 |

From the Human Domainome abundance scans (Beltran et al. 2025)
